In the supplement of paper PMC9170038:

Key:
MS2 coat protein [1] = test: apparent KD of MS2 coat protein, switch OFF state (with FMN for OFF switches, without FMN for ON switches); designed switch direction (-1 OFF switch, 1 ON switch): 1; higher = weaker reporter binding; conditions: FMN input: 0 or 200 uM; Eterna round: R93 (includes R88 designs)
How it was run: (§1)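 Apparent KD is reported per design as the median of normalised binding-curve fits across its clusters. The RNA switches were made by on-chip transcription from Illumina sequencing clusters. SNAP-549-labelled MS2 coat protein was then added in twofold steps (0.7 or 1.5 nM to 3 µM; 0.8–1.5 h to 10–20 min per step) in 100 mM Tris-HCl pH 7.5, 80 mM KCl, 4 mM MgCl2, without or with constant ligand.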

MS2 coat protein [2] = test: apparent KD of MS2 coat protein, switch ON state; designed switch direction (-1 OFF switch, 1 ON switch): 1; higher = weaker reporter binding; conditions: FMN input: 0 or 200 uM; Eterna round: R93 (includes R88 designs)
How it was run: as §1

Sequence	apparent KD of MS2 coat protein (MS2 coat protein [1])	apparent KD of MS2 coat protein (MS2 coat protein [2])
AGCACGUGAUUGGAGGAUAUGUAGUAAGCAACAUGAGGAUCACCCAUGUCUGAGGCUGAAAAGCAGCAGAAGGCCGAUACAACCA [SS2-1.5]	19.2 nM	18.2 nM
AAUAUACAUGAGGAUCACCCAUGUUAGGUGGGACUAGGAUAUCAAAAGAAAGAGUAAGAAUGAGAAGGAGUAGAAA [JR_SS001_Sub016]	240 nM	145 nM
AACAAUCUAUCUGAGGAUAUCAUGUGAAAGACAUGAGGAUCACCCAUGUUGCAGGAAACUGCUCAUGAGAAGGCAGAUAGAUUGA [SS2: 1126]	28.3 nM	11.5 nM
GAAAAACAUGAGGAUCACCCAUGUAGAAAUAUGGGAGGAUAUACAAAGUCGAAAGACAAAGUAGAAGGCCUAAAAG [Mat - Same State 1 - Eli mod - D2]	67.1 nM	24.6 nM
GGGAGGAAGAGAGAGGAUAUCCAAAGGAAAACAUGAGGAUCACCCAUGUAAAAGGUAGGAAAUUGGGAGAAGGCUCAAAAGAUGG [salish99-ss2-046]	22.3 nM	70.5 nM
AUGAAAGUAACACAGGAUAUCGAGGAUACAACAUGAGGAUCACCCAUGUACAUACGAACGUAUAACGAGAAGGGUGGAUGAUCUUC [ss2]	62.8 nM	140 nM
GAAAAGAAAACACAGGAUAUCCAAAAGAAAACAUGAGGAUCACCCAUGUAAAGAAAAUAAAAAUGGGAGAAGGGUGAAAGAAAGA [Mat - Same State 2 - JL mod - D42]	53.6 nM	20.9 nM
GAAAAACAUGAGGAUCACCCAUGUAGAAAUAUGGGAGGAUAUACAAAGACGAAAGUCAAAGUAGAAGGCCUGAUAG [JL S1 M-MoE mod 3]	79.2 nM	28.6 nM
GAAGAACAUGAGGAUCACCCAUGUGAGAACAUGGGAGGAUAUACGAGGACGAAAGUCAAAGUAGAAGGCCUAAGAG [Garnet 87]	29.8 nM	104 nM
AAAGACAUAGUUCAGGAUAUGGUAAUAGUCACAUGAGGAUCACCCAUGUGCAUUUAUAUGCGCGAUCAGAAGGGAGGUAAAAAAA [SameState2 Malc#16]	21.9 nM	17.5 nM
UGUCUACCUGAUGAGGAUAUCCCACAGGCGACAUGAGGAUCACCCAUGUAAAGUAAGCGUAGGCGGGAGAAGGCAUGGCGGAGAC [Larearre]	30.7 nM	14.5 nM
GAAAAACAUGAGGAUCACCCAUGUGAUAAUAUGGGAGGAUAUACGAAGACGAAAGUCAAAGUAGAAGGCCUAAAAG [Garnet 36]	81.7 nM	57.5 nM
AAAAGACAUGAGGAUCACCCAUGUGAAAACGUGCGAGGAUAUGUAUGGAAACUAUACUGUACAGAAGGCGCAUGUC [SS1 - 81]	24.3 nM	19.9 nM
AGGAGACAUGAGGAUCACCCAUGUGAGAAGAGGCGAGGAUAUCGAAAGAAAGAAGAGAAACGAGAAGGCGCGAGAG [salish99-SS1-025]	37.4 nM	28.4 nM
CCGAUGGUAUACUAGGAUAUGGGCGCCCUUACAUGAGGAUCACCCAUGUUAUCACAAAUCCGCGGCCAGAAGGAGUUCAUGGGAG [Ustiririra]	151 nM	62.8 nM
AAAAAACAUGAGGAUCACCCAUGUCUUCGGACGUGAGGAUAUGUACAGACUUCGGUCUGUACAGAAGGCACGAAAA [SS1 - 1035]	114 nM	22.7 nM
CCGAUACAUGAGGAUCACCCAUGUUAGGUAGAACAAGGAUAUCUAGAUAGAUAAAAAUAUAGAGAAGGUGUAUAAC [JR_SS001_Sub208]	26 nM	17.1 nM
AAAUAACAUGAGGAUCACCCAUGUUACGACGUUACAGGAUAUGUGGGUGAAAAUAGCAUGACAGAAGGGUACCGUA [SameState1 Malc#37]	60.3 nM	68.5 nM
UAUCAUUACACGAAGGAUAUCGAUAAUUGAACAUGAGGAUCACCCAUGUGAUAUAUAAUACAGUUCGAGAAGGUCGAGGGUGAAG [JR_SS002_Sub704]	23.9 nM	17.8 nM
AAGAAACAUGAGGAUCACCCAUGUGAUAAUAUGGGAGGAUAUACAAAGACGAAAGACGAAGUAGAAGGCCUAUGAA [Garnet 44]	124 nM	49 nM
AAAAAACAUGAGGAUCACCCAUGUCCUCACGUGCGAGGAUAUGGAUGGAAACCAUACUGUCCAGAAGGCGCAUGUA [EteRNA is fun!]	159 nM	230 nM
AAAUAAAGGACUGAGGAUAUACCACAUGAAACAUGAGGAUCACCCAUGUUGAAAAACAGAGGGUGGUAGAAGGCAGUCCACAAAC [Same State 2.5d ( so lets mod hyphema)]	23.3 nM	12.5 nM

Sequence	apparent KD of MS2 coat protein (MS2 coat protein [1])	apparent KD of MS2 coat protein (MS2 coat protein [2])
AAAAAACAUGAGGAUCACCCAUGUGCAAAAUUCGCAGGAUAUUCCUCAAUUAAAUGAGAGGAAGAAGGGUGUAAAA [Nob's Hobby 25 - Jieux - Same State 1]	130 nM	27.4 nM
AGAAAUAAAAGACAGGAUAUCCUUAAGAAAACAUGAGGAUCACCCAUGUAAAAGAAAAUAAAAAGGGAGAAGGGUCAAAAUAAGA [Mat - Same State 2 - JL mod - D80]	26.2 nM	18 nM
AGAAAACAUGAGGAUCACCCAUGUAGAAAUAUGGGAGGAUAUACGAAGACGAAAGUCAAAGUAGAAGGCCUAAAAG [Mat - Same State 1 - Eli mod - D102]	69.8 nM	22 nM
AUAAAACAUGAGGAUCACCCAUGUAAAAAUAUGGGAGGAUAUACGAAAUAAAAUAAAUACGUAGAAGGCCUAAAAA [SS! MT 20]	111 nM	20.2 nM
AAAUAAAUGACUAAGGAUAUAUCAAAAGAAACAUGAGGAUCACCCAUGUAAUAAUAAAAAGGGUGAUAGAAGGUAGUCAACAAAC [74%, More Paria 4]	115 nM	24.6 nM
GAAAUACAUGAGGAUCACCCAUGUUAGGUGGAUCAAGGAUAUCAAGGUAAAUAAAAACCUUGAGAAGGUGAAUAAA [JR_SS001_Sub204]	141 nM	87.8 nM
AGAAAUAAAAGAGAGGAUAUCCAAAAGAAAACAUGAGGAUCACCCAUGUAAAAGAAAAUAAAAUGGGAGAAGGCUCGAAAUAAGA [Topaz 21]	107 nM	18.3 nM
AAAAACACAGUGCAGGAUAUGGUAAUAGUCACAUGAGGAUCACCCAUGUUCUUUUAUAAGAACGAUCAGAAGGGCGGUGAAAAAA [Mat - Same state - Malcolm Mod - D114]	155 nM	241 nM
AAAUAAAGAUACUAGGAUAUCCCGUGAGGUACAUGAGGAUCACCCAUGUGUAACGAACUCCCGCGGGAGAAGGAGUUGCACACGA [Inanuserra]	52.4 nM	38 nM
AGAAAACAUGAGGAUCACCCAUGUAGAAAUAUGGGAGGAUAUACAAAGACGAAAGUCAGAGUAGAAGGCCUAAAAA [salish99-SS1-085]	77.3 nM	14.6 nM
AACAGGAAGAGAGAGGAUAUCCAAAGGAAAACAUGAGGAUCACCCAUGUAAAAGGUAGGAAAUUGGGAGAAGGCUCAAGAGAGAG [salish99-ss2-089]	47.3 nM	24.8 nM
AAAAAACAUGAGGAUCACCCAUGUCAAAAGACGUGAGGAUAUGUACAGACUUCGGUCUGUACAGAAGGCAUGUAAA [SS1 - 1053]	144 nM	21.3 nM
AGAAAUAAAAGUCAGGAUAUGGGUAAGAAAACAUGAGGAUCACCCAUGUAAAAGAAAAUAAAAAACCAGAAGGGACAAAAUAAAG [Reversing G segment in JL's winner (80%) Variant 4]	88.6 nM	30.1 nM
GGGAGGAAGAGAGAGGAUAUCCAAAGGAAAACAUGAGGAUCACCCAUGUAAAAGGUAGGAAAUUGGGAGAAGGCUCAAAAGAGUG [salish99-ss2-043]	22.2 nM	13.7 nM
AAACCACAUGAGGAUCACCCAUGUAAAAAUAUGGGAGGAUAUGCGAAAAGAAACAAAGAAGCAGAAGGCCUAAAAA [75%, Ex sub1, 19]	114 nM	26.3 nM
GAAAAACAUGAGGAUCACCCAUGUGAUAACAUGGGAGGAUAUACAAGGACGAUAGUCAAAGUAGAAGGCCUAAAAG [Garnet 61]	47.9 nM	289 nM
GAAAAACAUGAGGAUCACCCAUGUAAUACAACAUCAGGAUAUUGAUUUUACUAUGUAUUGCAAGAAGGGAUGAAAG [Mat - Same State 1 - Hyphema mod - D100]	42.6 nM	57.2 nM
AAUAAUUAUAUGGAGGAUAUCGGUAAUAAGACAUGAGGAUCACCCAUGUAAUAAGGUUAAAUAAACGAGAAGGCCAAGGGUGAAA [JR_SS002_Sub005]	234 nM	59.7 nM
AUAAAACAUGAGGAUCACCCAUGUCCGACAAAUCAAGGAUAUGAUAGCCAAACCAGGCCGUUAGAAGGUGAAAGAA [Edgeza]	147 nM	276 nM
CGGAGACAUGAGGAUCACCCAUGUGAGAAGAGGCGAGGAUAUUGAAAGAAAGAAGAGAAAUGAGAAGGCGCGAGCC [salish99-SS1-083]	38.1 nM	55.3 nM
AAAUAAAUGACUGAGGAUAUAUCGAUGAGUACAUGAGGAUCACCCAUGUGAUAAUAAAAAGGGUGGUAGAAGGUAGUCAACAAAC [Mod 14 of Pariah 4 by Hyphema in Round 1]	150 nM	185 nM
